Results published in patent publication US20130330324A1 (Novartis, published 2013).

Legend:
[1] = molecular target: T1, Human HER3, endogenous, on human cancer cell lines (human, UniProt P21860 20-1342); assay: cell-based or functional assay
[2] = molecular target: T2, Hu HER3 (CD33-[Human HER3, residues 20-640]-TAG) (human, UniProt P21860 20-640); assay: ELISA titration, wild-type HER3-Tag coated, antibody titrated, OD450
T2 construct: N-terminal CD33 leader is a secretion signal and is left out; also called hu HER3-Tag; HER3-Tag; not shown: C-terminal TAG (e.g. FLAG TAG)

[3] = molecular target: T1, Human HER3, endogenous, on human cancer …; assay: cell-based or functional assay; remark: listed apart in the source
[4] = molecular target: T1, Human HER3, endogenous, on human cancer …; assay: FACS titration on SK-Br-3 cells
[5] = molecular target: T3, HER3 K267A (CD33-[Human HER3, residues 20-640, K267A]-TAG) (human, UniProt P21860 20-640); assay: ELISA titration, mutant HER3-Tag coated, antibody titrated, OD450
T3 construct: CD33 leader left out as signal; also called HER3 K267A-Tag; not shown: C-terminal TAG

[6] = molecular target: T4, HER3 L268A (CD33-[Human HER3, residues 20-640, L268A]-TAG) (human, UniProt P21860 20-640); assay: as above
T4 construct: CD33 leader left out as signal; also called HER3 L268A-Tag; not shown: C-terminal TAG

[7] = molecular target: T1, Human HER3, endogenous, on human cancer …; assay: cell-based or functional assay; remark: listed apart in the source
[8] = molecular target: T5, Mu HER3 (CD33-[Murine HER3, residues 20-643]-TAG) (mouse, UniProt Q61526 20-643); assay: solution equilibrium titration (SET), IgG
T5 construct: range 20-643; CD33 leader left out as signal; also called mu HER3-Tag; not shown: C-terminal TAG (e.g. FLAG TAG)

[9] = molecular target: T2, Hu HER3 (CD33-[Human HER3, residues …); assay: solution equilibrium titration (SET), IgG
[10] = molecular target: T6, Rat HER3 (CD33-[Rat HER3, residues 20-643]-TAG) (rat, UniProt Q62799 20-643); assay: solution equilibrium titration (SET), IgG
T6 construct: range 20-643; CD33 leader left out as signal; also called ra HER3-Tag; not shown: C-terminal TAG (e.g. FLAG TAG)

[11] = molecular target: T7, Cyno HER3 (CD33-[Cyno HER3, residues 20-643]-TAG) (cynomolgus, UniProt G7PIG5 20-643); assay: solution equilibrium titration (SET), IgG
T7 construct: range 20-643; CD33 leader left out as signal; also called cy HER3-Tag; not shown: C-terminal TAG (e.g. FLAG TAG)

MCF7 pHER3 % inhibition [1]: 80%
MCF7 pHER3 IC50 [1]: 333 pM
SK-Br-3 pHER3 % inhibition [1]: 69%
SK-Br-3 pHER3 IC50 [1]: 167 pM
EC50 (read off the curve) [2]: ~300 pM
BT-474 proliferation % inhibition at 10 µg/ml IgG [3]: 41.6%
MCF7 (neuregulin stimulated) proliferation % inhibition at 10 µg/ml IgG [3]: 81%
SK-Br-3 proliferation % inhibition at 10 µg/ml IgG [3]: 35%
EC50 [4]: 2.45 nM
binding result [5]: no binding
binding result [6]: no binding
BT-474 pAkt (S473) % inhibition [7]: 62%
MCF7 pAkt (S473) IC50 [7]: 449 pM
SK-Br-3 pAkt (S473) % inhibition [7]: 89%
SK-Br-3 pAkt (S473) IC50 [7]: 70 pM
Kd [8]: 0.02 nM
Kd [9]: 0.026 nM
Kd [10]: 0.04 nM
Kd [11]: 0.023 nM
B1: MOR10703 (antibody, human IgG1, kappa, V domains shown)
VH: EVQLLESGGGLVQPGGSLRLSCAASGFTFSSYAMSWVRQAPGKGLEWVSAINSQGKSTYYADSVKGRFTISRDNSKNTLYLQMNSLRAEDTAVYYCARWGDEGFDIWGQGTLVTVSS
VL: DIQMTQSPSSLSASVGDRVTITCRASQGISNWLAWYQQKPGKAPKLLIYGASSLQSGVPSRFSGSGSGTDFTLTISSLQPEDFATYYCQQYSSFPTTFGQGTKVEIKR
notes: tested as IgG
